Columns and labels:
Experiment in all cases: SPR
[1] = target: T1, gp120IIIB (subgroup B) (HIV-1, UniProt P04578 33-511)
T1 construct: it is not tied to this reagent; also called IIIB gp120 (B)

[2] = target: T2, CA018 gp140/420 (A/G) (HIV-1)
T2 construct: also called gp120 of CA18

[3] = target: T3, gp140UG37 (subtype A), gp140 envelope glycoprotein from the HIV-1 group M A-clade isolate 92UG037 (HIV-1)
T3 construct: also called UG037 gp140/420 (A); gp140-UG037

[4] = target: T4, gp140CN54 (subtype B'/C), gp140 envelope glycoprotein from the HIV-1 group M CRF07-B/C-clade isolate 97CN54 (HIV-1)
T4 construct: also called CN54 gp140/420 (C); CN54 gp140 Env

[5] = target: gp120IIIB (subgroup B) (HIV-1, UniProt P04578 33-511)

Binder | Kd [1] [nM] | koff [1] [s⁻¹] | kon [1] [M⁻¹ s⁻¹] | Kd [2] [nM] | koff [2] [s⁻¹] | kon [2] [M⁻¹ s⁻¹] | Kd [3] [nM] | koff [3] [s⁻¹] | kon [3] [M⁻¹ s⁻¹] | Kd [4] [nM] | koff [4] [s⁻¹] | kon [4] [M⁻¹ s⁻¹] | Kd [5] [nM] | koff [5] [s⁻¹] | kon [5] [M⁻¹ s⁻¹]
L91C2 (VHH, Purified by IMAC; tags not written into the chain) VHH: EVQLVESGGGLVQPGGSLRLSCAASGFTLDGYAIGWFRQAPGKEREAISCITTAGTIYYADSVKGRVTISRDNAKNTVYLQMNSLKPEDTAVYLCAADGFDTPCVAGTDWGYDYEGQGTQVTVSS | 2.01 | 0.00025 | 122000 |  |  |  |  |  |  |  |  |  |  |  | 
L91F10 (VHH, Purified by IMAC; tags not written into the chain) VHH: EVQLVESGGGLVQPGGSLTLSCVASGFTLDGYAIGWFRQAPGKEVESVSCITGRHGTIYYADSVMGRFTISRDNAKSTVYLQMNSLKPEDTAVYYCAADGFDTPCVAGTDWQYDYWGQGTQVTVSS |  |  |  | 1.18 | 6.94e-05 | 58800 | 3.98 | 0.00012 | 29300 | 0.0771 | 7.12e-07 | 9230 |  |  | 
L82B4F (VHH, Family member of L81H9; tags not written into the chain) VHH: EVQLVESGGGLVQAGGSLRLSCAASGFTSDDYAIGWFRRAPGKEREGVSYISIEDGSTYSADSVKGRFTISSDYAKNTVYLQMNGLKPEDTAVYYCAAAILGDSVRWLQEYDYDYWGQGTQVTVSS | 0.0315 | 0.000734 | 2.3e+07 | 3500 | 0.00298 | 850 | 0.0031 | 3.25e-08 | 10500 |  |  |  |  |  | 
mAb 2G12 (antibody, V domains shown) VH: EVQLVESGGGLVKAGGSLILSCGVSNFRISAHTMNWVRRVPGGGLEWVASISTSSTYRDYADAVKGRFTVSRDDLEDFVYLQMHKMRVEDTAIYYCARKGSDRLSDNDPFDAWGPGTVVTVSP VL: DVVMTQSPSTLSASVGDTITITCRASQSIETWLAWYQQKPGKAPKLLIYKASTLKTGVPSRFSGSGSGTEFTLTISGLQFDDFATYHCQHYAGYSATFGQGTRVEIKR |  |  |  |  |  |  |  |  |  |  |  |  | 1.91 | 0.000314 | 165000
L8Cj3 (VHH, 207 chosen because J3r is said to carry S82aN against L8Cj3; also called L8CjJ3; L9Cj3) VHH: EVQLVESGGGLVQAGGFLRLSCELRGSIFNQYAMAWFRQAPGKEREFVAGMGAVPHYGEFVKGRFTISRDNAKSTVYLQMSSLKPEDTAIYFCARSKSTYISYNSNGYDYWGRGTQVTVSS |  |  |  | 8.86 | 3.98e-05 | 4490 | 0.00702 | 5.48e-08 | 7800 |  |  |  |  |  | 
L92E7 (VHH, Purified by IMAC; tags not written into the chain) VHH: EVQLVESGGGLVQPGGSLRLSCAASGNIVSIDAAGWFRQAPGKQREPVATILTGGATNYADSVKGRFTISRDNAKNTVYLQMSSLKPEDTAVYYCYAPMIYYGGRYSDYWGQGTQVTVSS | 4.42 | 0.00077 | 174000 | 7 | 0.00013 | 18000 | 11.2 | 0.00025 | 22200 | 4.46 | 0.00015 | 33200 |  |  | 
L91B5 (VHH, Purified by IMAC) VHH: EVQLVESGGGLVQPGGSLRLSCAASGATFDDYAIGWFRQAPGKEREGVSYIGCNDGATYYAGSVKGRFTISCDYAKNTVYLQMNSLKPEDTAVYYCAAAAQWATIRWIHEYDYNIWGQGTQVTVSS |  |  |  | 15.6 |  |  | 0.174 |  |  | 0.00127 |  |  |  |  | 
L91H9 (VHH, Purified by IMAC; tags not written into the chain) VHH: EVQLVESGGGLVQAGGSLRLSCAVSGATFDDYAIGWFRQAPGKEREGVSYIGCNDGSTYYAGSVKGRFTISCDYAKNTVYLQMNSLKPEDTAVYYCAAAAQWATIRWIHEYDYDTWGQGTQVTVSS | 4.11 | 0.000711 | 173000 | 321 | 0.428 | 1.33e+06 | 0.0102 | 9.81e-08 | 9610 | 0.0625 | 1.1e-06 | 17600 |  |  | 

Reference: US20150158934A1 (UCL BUSINESS, published 2015)
